How the values were obtained:
Assay in all cases: cryo-EM structure
[1] = target: Bufavirus 1 (BuV1) VP2, assembled as virus-like particles (Bufavirus 1 (BuV1))
[2] = target: Bufavirus 2 (BuV2) VP2, assembled as virus-like particles (Bufavirus 2 (BuV2))
[3] = target: Bufavirus 3 (BuV3) VP2, assembled as virus-like particles (Bufavirus 3 (BuV3))

Substance: Bufavirus 1 (BuV1) VP2, assembled as virus-like particles (natural protein)
- stoichiometry N [1]: 60

Substance: Bufavirus 2 (BuV2) VP2, assembled as virus-like particles (natural protein)
- stoichiometry N [2]: 60

Substance: Bufavirus 3 (BuV3) VP2, assembled as virus-like particles (natural protein)
- stoichiometry N [3]: 60

From publication PMC5795435
